The values below come from publication PMC4989918.

The target of test [1] is Mb(BgaD_L14), purified monobody. Description: bead-based binding assay read by flow cytometry. (In general: A flow cytometer gives signals particle by particle.)
For test [2], the target named is Mb(BgaD_L19) displayed on yeast. The test is described as follows: flow cytometry on cells.
Test [3] deals with Mb(BgaD_L23) displayed on yeast. Description: flow cytometry on cells.

B1: BgaD-D, β-galactosidase from Bacillus circulans ATCC 31382 (residues 36–847), biotinylated (enzyme)
chain: GNSVSYDGERRVNFNENWRFQRETNGSIAGAQNPGFDDSSWRKLNLPHDWSIELDFNKNSLATHEGGYLDGGIGWYRKTFTIPESMKGKRISLDFDGVYMNSTTYLNGEVLGTYPFGYNAFSYDISDKLYKDGRANVLVVKVNNTQPSSRWYSGSGIYRNVYLTVTDPIHVARYGTFVTTPNLEKSIKEDRADVNIKTKISNDAAEAKQVKIKSTIYDGAGNTVQTVETEEKTAAAGTVTPFEQNTVIKQPKLWSIDKPYRYNLVTEVIVGGQTVDTYETKFGVRYFKFDENEGFSLNGEYMKLHGVSMHHDLGALGAATNARGVERQMQIMKDMGVNAIRVTHNPASPELLEAANKLGLFIIEEAFDSWAQSKKPYDYGRFFNAWAEHDIKEMVDRGKNEPAIIMWSIGNEIYDTTNAAGVETARNLVGWVKEIDTTRPTTIGEDKTRGDKVNVTPINSYIKEIFNIVDVVGLNYSENNYDGYHKQNPSWKLYGSETSSATRSRGVYTHPYQYNQSTKYADLQQSSYDNDYVGWGRTAEDAWKYDRDLKHIAGQFIWTGFDYIGEPTPYYNSYPAKSSYFGAVDTAGFPKDIFYYYQSQWKKEPMVHLLPHWNWKEGEKVRVLAYTNASKVELVLNGESLGEKNYDNKQTSWGAPYKETKDGKTYLEWAVPFKPGKLEAVAKDENGKVIARDQVVTAGEPASVRLTADRKVVKADGTDLSFITADIVDSKGIVVPDADHLITFNVTGQGELAGVDNGNASSVERYKDNKRKAFSGKALAIVQSSKLSGKITVHASVAGLSSDSTSVFTVTP
modifications: biotin on the biotin-acceptor tag (in vivo biotinylation)
What is called Kd is the concentration at which binding is half-saturated. Take B1: the Kd was found to be 31 nM in test [1], 600 nM in test [2] and 12 nM in test [3].
